ChEMBL document CHEMBL1130356, “A CHROMOGENIC SUBSTRATE FOR THE CONTINUOUS ASSAY OF MAMMALIAN PHOSPHOINOSITIDE-SPECIFIC PHOSPHOLIPASE C” (Bioorg Med Chem Lett, 1997)

T1: 1-phosphatidylinositol 4,5-bisphosphate phosphodiesterase beta-1 (Homo sapiens) (UniProt Q9NQ66)
T1 sequence (whole entry): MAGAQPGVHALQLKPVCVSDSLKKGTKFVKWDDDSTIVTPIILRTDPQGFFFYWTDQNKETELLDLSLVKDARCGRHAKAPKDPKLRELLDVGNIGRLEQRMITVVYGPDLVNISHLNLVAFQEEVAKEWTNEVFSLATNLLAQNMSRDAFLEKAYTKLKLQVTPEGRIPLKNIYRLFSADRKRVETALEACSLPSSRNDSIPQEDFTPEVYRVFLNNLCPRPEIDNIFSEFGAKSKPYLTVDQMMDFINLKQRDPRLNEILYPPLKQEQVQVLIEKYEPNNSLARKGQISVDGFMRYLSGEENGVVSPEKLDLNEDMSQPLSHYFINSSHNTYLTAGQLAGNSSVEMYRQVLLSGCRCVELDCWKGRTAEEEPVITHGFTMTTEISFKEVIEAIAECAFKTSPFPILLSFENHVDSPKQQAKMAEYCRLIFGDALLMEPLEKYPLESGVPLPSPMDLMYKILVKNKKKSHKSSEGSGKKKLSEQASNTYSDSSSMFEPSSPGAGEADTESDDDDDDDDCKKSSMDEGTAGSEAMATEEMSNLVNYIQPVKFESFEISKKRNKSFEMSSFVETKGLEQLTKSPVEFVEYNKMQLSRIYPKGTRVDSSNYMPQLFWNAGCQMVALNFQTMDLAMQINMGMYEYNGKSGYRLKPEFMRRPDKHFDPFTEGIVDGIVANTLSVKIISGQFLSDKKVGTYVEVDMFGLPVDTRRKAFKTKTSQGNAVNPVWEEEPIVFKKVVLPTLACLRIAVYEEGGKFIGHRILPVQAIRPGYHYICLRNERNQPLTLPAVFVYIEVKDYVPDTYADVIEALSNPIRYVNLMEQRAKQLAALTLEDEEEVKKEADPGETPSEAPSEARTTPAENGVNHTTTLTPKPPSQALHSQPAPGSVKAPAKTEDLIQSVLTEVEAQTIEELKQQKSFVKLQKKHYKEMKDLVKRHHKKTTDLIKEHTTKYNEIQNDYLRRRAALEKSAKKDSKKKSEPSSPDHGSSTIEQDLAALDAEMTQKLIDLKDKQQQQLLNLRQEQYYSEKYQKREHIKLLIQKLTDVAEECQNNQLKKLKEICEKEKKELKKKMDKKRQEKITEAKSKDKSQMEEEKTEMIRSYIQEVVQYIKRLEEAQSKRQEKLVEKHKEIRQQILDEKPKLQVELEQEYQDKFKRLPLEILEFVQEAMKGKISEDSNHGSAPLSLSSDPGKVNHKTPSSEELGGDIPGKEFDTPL

B1: 1-phosphatidylinositol 4,5-bisphosphate phosphodiesterase beta-1 (Homo sapiens), Q9NQ66 (protein)
chain: MAGAQPGVHALQLKPVCVSDSLKKGTKFVKWDDDSTIVTPIILRTDPQGFFFYWTDQNKETELLDLSLVKDARCGRHAKAPKDPKLRELLDVGNIGRLEQRMITVVYGPDLVNISHLNLVAFQEEVAKEWTNEVFSLATNLLAQNMSRDAFLEKAYTKLKLQVTPEGRIPLKNIYRLFSADRKRVETALEACSLPSSRNDSIPQEDFTPEVYRVFLNNLCPRPEIDNIFSEFGAKSKPYLTVDQMMDFINLKQRDPRLNEILYPPLKQEQVQVLIEKYEPNNSLARKGQISVDGFMRYLSGEENGVVSPEKLDLNEDMSQPLSHYFINSSHNTYLTAGQLAGNSSVEMYRQVLLSGCRCVELDCWKGRTAEEEPVITHGFTMTTEISFKEVIEAIAECAFKTSPFPILLSFENHVDSPKQQAKMAEYCRLIFGDALLMEPLEKYPLESGVPLPSPMDLMYKILVKNKKKSHKSSEGSGKKKLSEQASNTYSDSSSMFEPSSPGAGEADTESDDDDDDDDCKKSSMDEGTAGSEAMATEEMSNLVNYIQPVKFESFEISKKRNKSFEMSSFVETKGLEQLTKSPVEFVEYNKMQLSRIYPKGTRVDSSNYMPQLFWNAGCQMVALNFQTMDLAMQINMGMYEYNGKSGYRLKPEFMRRPDKHFDPFTEGIVDGIVANTLSVKIISGQFLSDKKVGTYVEVDMFGLPVDTRRKAFKTKTSQGNAVNPVWEEEPIVFKKVVLPTLACLRIAVYEEGGKFIGHRILPVQAIRPGYHYICLRNERNQPLTLPAVFVYIEVKDYVPDTYADVIEALSNPIRYVNLMEQRAKQLAALTLEDEEEVKKEADPGETPSEAPSEARTTPAENGVNHTTTLTPKPPSQALHSQPAPGSVKAPAKTEDLIQSVLTEVEAQTIEELKQQKSFVKLQKKHYKEMKDLVKRHHKKTTDLIKEHTTKYNEIQNDYLRRRAALEKSAKKDSKKKSEPSSPDHGSSTIEQDLAALDAEMTQKLIDLKDKQQQQLLNLRQEQYYSEKYQKREHIKLLIQKLTDVAEECQNNQLKKLKEICEKEKKELKKKMDKKRQEKITEAKSKDKSQMEEEKTEMIRSYIQEVVQYIKRLEEAQSKRQEKLVEKHKEIRQQILDEKPKLQVELEQEYQDKFKRLPLEILEFVQEAMKGKISEDSNHGSAPLSLSSDPGKVNHKTPSSEELGGDIPGKEFDTPL

What was measured:
[1] = biological target: T1, 1-phosphatidylinositol 4,5-bisphosphate phosphodiesterase beta-1 (Homo sapiens); assay: Ratio of the kinetic constant kcat to that of KM
[2] = biological target: T1, 1-phosphatidylinositol 4,5-bisphosphate phosphodiesterase beta-1 (Homo sapiens); assay: Kinetic constant kcat against human phosphoinositide-specific phospholipase C
[3] = substrate: O=[N+]([O-])c1ccc(OP(=O)(O)O[C@@H]2[C@H](O)[C@H](O)[C@@H](OP(=O)(O)O)[C@H](OP(=O)(O)O)[C@H]2O)cc1; assay: Michaelis-Menten constant of the compound (D-isomer) was determined against human phosphoinositide-specific phospholipase C
[4] = substrate: O=[N+]([O-])c1ccc(OP(=O)(O)O[C@@H]2[C@H](O)[C@H](O)[C@@H](OP(=O)(O)O)[C@H](OP(=O)(O)O)[C@H]2O)cc1; assay: Kinetic constant Vmax against human phosphoinositide-specific phospholipase C
[5] = substrate: O=[N+]([O-])c1ccc(OP(=O)(O)O[C@@H]2[C@H](O)[C@H](O)[C@@H](OP(=O)(O)O)[C@H](OP(=O)(O)O)[C@H]2O)cc1; assay: Michaelis-Menten constant against human phosphoinositide-specific phospholipase C

Molecule | Ratio [1] | k cat [2] [s⁻¹] | Km [3] [µM] | Vmax [4] [µM/min/mg] | Km [5] [µM]
O=[N+]([O-])c1ccc(OP(=O)(O)O[C@@H]2[C@H](O)[C@H](O)[C@@H](OP(=O)(O)O)[C@H](OP(=O)(O)O)[C@H]2O)cc1 (racemic) | 83000 | 112 |  |  | 
B1 |  |  | 1350 | 78.5 | 2700
